# pKd: −log10 of the molar value.
# What was measured:
# HLA-B*15:03 = experiment: IEDB peptide-MHC binding, purified MHC/competitive/radioactivity; filed as Kd, often an IC50 or EC50 that approximates it; ≥ and ≤ were set here for values at or beyond the usual limits of such assays
# HLA-A*02:01 [1] = experiment: as above
# HLA-A*02:06 = experiment: as above
# HLA-A*02:17 = experiment: as above
# HLA-B*08:01 [2] = experiment: IEDB peptide-MHC binding, purified MHC/direct/fluorescence; filed as Kd, often an IC50 or EC50 that approximates it; ≥ and ≤ were set here for values at or beyond the usual limits of such assays
# HLA-B*08:02 = experiment: as above; details: source organism: Listeria monocytogenes serotype 4b str. H7858
# HLA-B*40:01 [3] = experiment: IEDB peptide-MHC binding, purified MHC/competitive/radioactivity; filed as Kd, often an IC50 or EC50 that approximates it; ≥ and ≤ were set here for values at or beyond the usual limits of such assays; details: source organism: Dengue virus 3 Martinique/1243/1999
# HLA-B*44:02 [4] = experiment: as above; details: source organism: Dengue virus 3 Martinique/1243/1999
# HLA-B*44:03 = experiment: as above; details: source organism: Dengue virus 3 Martinique/1243/1999
# HLA-A*30:01 = experiment: as above; details: source organism: Vaccinia virus WR
# HLA-A*32:01 = experiment: as above; details: source organism: Vaccinia virus WR
# HLA-B*08:01 [5] = experiment: as above; details: source organism: Vaccinia virus WR
# HLA-B*15:01 [6] = experiment: as above; details: source organism: Vaccinia virus WR
# HLA-B*27:05 = experiment: IEDB peptide-MHC binding, purified MHC/direct/fluorescence; filed as Kd, often an IC50 or EC50 that approximates it; ≥ and ≤ were set here for values at or beyond the usual limits of such assays
# HLA-B*48:01 = experiment: as above; details: source organism: Escherichia coli O157:H7
# HLA-A*02:03 = experiment: IEDB peptide-MHC binding, purified MHC/competitive/radioactivity; filed as Kd, often an IC50 or EC50 that approximates it; ≥ and ≤ were set here for values at or beyond the usual limits of such assays
# HLA-A*68:02 = experiment: as above; details: source organism: Dengue virus 1 Brazil/97-11/1997
# HLA-A*01:01 = experiment: IEDB peptide-MHC binding, purified MHC/direct/fluorescence; filed as Kd, often an IC50 or EC50 that approximates it; ≥ and ≤ were set here for values at or beyond the usual limits of such assays; details: source organism: Yersinia pestis
# HLA-A*02:01 [7] = experiment: as above; details: source organism: Yersinia pestis Nepal516
# HLA-A*03:01 = experiment: as above; details: source organism: Yersinia pestis Nepal516
# HLA-A*11:01 = experiment: as above; details: source organism: Yersinia pestis Nepal516
# HLA-A*24:03 = experiment: as above; details: source organism: Yersinia pestis Nepal516
# HLA-A*26:01 = experiment: as above; details: source organism: Yersinia pestis Nepal516
# HLA-A*31:01 = experiment: as above; details: source organism: Yersinia pestis Nepal516
# HLA-A*69:01 = experiment: as above; details: source organism: Yersinia pestis Nepal516
# HLA-B*07:02 = experiment: as above; details: source organism: Yersinia pestis Nepal516
# HLA-B*15:01 [8] = experiment: as above; details: source organism: Yersinia pestis Nepal516
# HLA-B*40:01 [9] = experiment: as above; details: source organism: Yersinia pestis Nepal516
# HLA-B*44:02 [10] = experiment: as above; details: source organism: Yersinia pestis Nepal516
# HLA-B*58:01 = experiment: as above; details: source organism: Yersinia pestis Nepal516
# [11] = source organism: Vaccinia virus WR
# [12] = source organism: Vaccinia virus Copenhagen
# [13] = source organism: Dengue virus 1 Singapore/S275/1990
# [14] = source organism: Dengue virus 1 Brazil/97-11/1997
# [15] = source organism: Dengue virus 4 Philippines/H241/1956
# [16] = source organism: Dengue virus 2 Thailand/NGS-C/1944
# [17] = source organism: Yersinia pestis Nepal516
# [18] = source organism: Dengue virus 3 Martinique/1243/1999
# [19] = source organism: Dengue virus 3 Sri Lanka/1266/2000
sequence,measurement,setting,value
IKVTAASPM,pKd,HLA-B*15:03; [11],8.56
ISSRESVSF,pKd,HLA-B*15:03; [12],7.92
KKMQSYNSV,pKd,HLA-B*15:03; [11],8.55
FHVRRLLKF,pKd,HLA-B*15:03; [12],7.67
MLLMLLPTAL,pKd,HLA-A*02:01 [1]; [13],7.78
same,pKd,HLA-A*02:06; [14],8.27
same,pKd,HLA-A*02:17; [13],7.11
HLKRRKEPL,pKd,HLA-B*08:01 [2]; source organism: Listeria monocytogenes serotype 4b str. H7858,7.80
same,pKd,HLA-B*08:02,6.34
SIILEFFLMV,pKd,HLA-A*02:01 [1]; [15],8.01
same,pKd,HLA-A*02:06; [14],7.80
same,pKd,HLA-A*02:17; [15],6.93
MEEALKGLPI,pKd,HLA-B*40:01 [3],7.06
same,pKd,HLA-B*44:02 [4],6.47
same,pKd,HLA-B*44:03,6.69
MVRLPYKDA,pKd,HLA-A*30:01,9.12
same,pKd,HLA-A*32:01,≤ 4.11
same,pKd,HLA-B*08:01 [5],≤ 4.11
same,pKd,HLA-B*15:01 [6],≤ 4.29
same,pKd,HLA-B*15:03; [11],≤ 4.52
RRHPMRLRK,pKd,HLA-B*27:05; source organism: Escherichia coli O157:H7,7.61
same,pKd,HLA-B*48:01,≤ 4.70
LILGAQALPV,pKd,HLA-A*02:01 [1]; [15],7.26
same,pKd,HLA-A*02:06; [15],7.74
same,pKd,HLA-A*02:17; [15],6.32
EQKLRPNSF,pKd,HLA-A*30:01,6.00
same,pKd,HLA-A*32:01,4.91
same,pKd,HLA-B*08:01 [5],5.21
same,pKd,HLA-B*15:01 [6],5.05
same,pKd,HLA-B*15:03; [11],5.96
VQHNIKHSF,pKd,HLA-B*15:03; [11],9.69
LKYYYSNSY,pKd,HLA-B*15:03; [11],9.62
SNINDFNIF,pKd,HLA-B*15:03; [11],6.30
LMMTTIGIV,pKd,HLA-A*02:01 [1]; [16],8.23
same,pKd,HLA-A*02:03; source organism: Dengue virus 2 Peru/IQT2913/1996,9.05
same,pKd,HLA-A*02:17; [16],6.74
LVMAFIAFL,pKd,HLA-A*02:01 [1]; [13],7.40
same,pKd,HLA-A*02:06; [14],7.84
same,pKd,HLA-A*02:17; [13],7.81
same,pKd,HLA-A*68:02,7.68
LSEEIGLDL,pKd,HLA-A*01:01,5.20
same,pKd,HLA-A*02:01 [7],≤ 4.70
same,pKd,HLA-A*03:01,≤ 4.70
same,pKd,HLA-A*11:01,≤ 4.70
same,pKd,HLA-A*24:03,≤ 4.70
same,pKd,HLA-A*26:01,≤ 4.70
same,pKd,HLA-A*31:01,≤ 4.70
same,pKd,HLA-A*69:01,≤ 4.70
same,pKd,HLA-B*07:02,≤ 4.70
same,pKd,HLA-B*08:01 [2]; [17],≤ 4.70
same,pKd,HLA-B*15:01 [8],≤ 4.70
same,pKd,HLA-B*27:05; [17],≤ 4.70
same,pKd,HLA-B*40:01 [9],≤ 4.70
same,pKd,HLA-B*44:02 [10],≤ 4.70
same,pKd,HLA-B*58:01,≤ 4.70
ALFSGVSWV,pKd,HLA-A*02:03; [18],9.44
same,pKd,HLA-A*02:06; [18],8.71
same,pKd,HLA-A*02:17; [19],6.34
ALFSGVSWVM,pKd,HLA-A*02:01 [1]; [19],8.14
same,pKd,HLA-A*02:17; [19],6.16

# — the Immune Epitope Database (IEDB)
